The results in this text go back to patent US20260263521A1 (AIMED BIO, published 2026).

Test [1] deals with T1, human CD200R1 expressed on cells (Jurkat-CD200R1, U937-CD200R1, HH cells) (human, UniProt Q8TD46 25-348).
T1 sequence (looked up): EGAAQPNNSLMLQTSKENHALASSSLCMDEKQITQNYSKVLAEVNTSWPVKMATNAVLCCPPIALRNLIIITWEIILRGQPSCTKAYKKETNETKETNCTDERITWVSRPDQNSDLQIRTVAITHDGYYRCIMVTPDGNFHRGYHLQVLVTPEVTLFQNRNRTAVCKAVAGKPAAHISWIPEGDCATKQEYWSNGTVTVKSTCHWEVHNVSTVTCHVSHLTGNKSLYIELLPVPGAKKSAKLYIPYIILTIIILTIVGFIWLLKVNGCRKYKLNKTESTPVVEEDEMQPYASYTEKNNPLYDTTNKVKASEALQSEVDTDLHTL
Description: cell-based or functional assay.

The target of test [2] is T1, human CD200R1 expressed on cells …. Nature of the test: flow cytometry, U937-CD200R cells. The procedure:
Two additional wells were treated with 10 μl of mouse IgG1K (BD, #555751) and 5 μl of commercial CD200R1 antibody (Biolegend, #329308) to determine CD200R1 expression on the cell line surface for cell quality control.
The antibodies were serially diluted 10-fold from a maximum concentration of 100 nM to 10 nM, 1 nM, […], and were added to the pre-seeded cells. After reaction for 1 hour at 4° C., the cells were treated with Alexa-647 goat anti-human IgG (H+L) cross-adsorbed secondary antibody (Invitrogen, #A21445) and incubated for an additional 30 minutes at 4° C. After washing twice with FACS buffer, flow cytometry was performed using a Novocyte Flow cytometer (Agilent). Using GraphPad Prism software, the EC₅₀ was determined using a nonlinear graph model of log (agonist) vs. response-variable slope, as shown in Table 32.
In general terms: A flow cytometer gives signals particle by particle.

For test [3] the target is unchanged. Nature of the test: flow cytometry, Jurkat-CD200R cells.
Test [4] addresses T2, human CD200R1 recombinant protein (construct not stated) (human, UniProt Q8TD46 27-266, limits assumed).
T2 sequence (looked up): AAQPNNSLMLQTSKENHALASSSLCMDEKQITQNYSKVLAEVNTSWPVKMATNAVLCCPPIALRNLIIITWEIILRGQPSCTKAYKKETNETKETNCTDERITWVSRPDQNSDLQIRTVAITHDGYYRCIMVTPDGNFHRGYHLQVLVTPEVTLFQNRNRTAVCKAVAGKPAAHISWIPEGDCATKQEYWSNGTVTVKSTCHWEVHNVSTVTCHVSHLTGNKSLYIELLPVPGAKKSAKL
Description: ELISA on human CD200R1, normalized absorbance at 450 nm, 0.0192-300 nM; panel 'Human CD200R1'. (In general: In an ELISA, binding on a coated surface is turned into a signal by an enzyme label.)

Test [5] deals with T3, monkey CD200R1 (ELISA antigen of Example 14) (monkey).
T3 chain: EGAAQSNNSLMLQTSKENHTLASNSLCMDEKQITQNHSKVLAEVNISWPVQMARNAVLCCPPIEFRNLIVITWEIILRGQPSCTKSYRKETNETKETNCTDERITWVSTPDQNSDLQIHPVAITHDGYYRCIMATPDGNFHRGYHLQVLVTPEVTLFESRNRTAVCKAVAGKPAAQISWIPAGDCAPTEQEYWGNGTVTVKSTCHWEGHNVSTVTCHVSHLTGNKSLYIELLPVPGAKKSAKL
Nature of the test: ELISA on monkey CD200R1, normalized absorbance at 450 nm, 0.0192-300 nM; panel 'Cyno CD200R1'.

Test [6] addresses T4, human CD200R1 with dual His-tags (human, UniProt Q8TD46 25-265).
T4 construct: Captured on the SPR chip by an anti-histidine antibody; also called hCD200R1-his; not shown: dual His-tags
T4 sequence (looked up): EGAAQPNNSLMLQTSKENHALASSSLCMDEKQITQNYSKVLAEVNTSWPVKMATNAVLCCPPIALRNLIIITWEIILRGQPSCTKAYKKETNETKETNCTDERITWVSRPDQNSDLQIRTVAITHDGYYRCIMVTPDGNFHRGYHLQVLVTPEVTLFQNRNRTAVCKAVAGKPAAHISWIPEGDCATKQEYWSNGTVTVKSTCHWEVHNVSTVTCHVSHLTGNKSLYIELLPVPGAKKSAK
Description: SPR (Biacore CM5), His-tagged antigen captured by anti-histidine antibody, antibody as analyte, 1:1 Langmuir fit. On the technique in general: SPR reads the build-up and loss of mass on a sensor chip optically.

Test [7] deals with T5, cynomolgus CD200R1 with dual His-tags (cynomolgus, UniProt G7NZT0 25-266).
T5 construct: Captured on the SPR chip by an anti-histidine antibody; also called CCD200R1-his; cCD200R1-his; not shown: dual His-tags
T5 sequence: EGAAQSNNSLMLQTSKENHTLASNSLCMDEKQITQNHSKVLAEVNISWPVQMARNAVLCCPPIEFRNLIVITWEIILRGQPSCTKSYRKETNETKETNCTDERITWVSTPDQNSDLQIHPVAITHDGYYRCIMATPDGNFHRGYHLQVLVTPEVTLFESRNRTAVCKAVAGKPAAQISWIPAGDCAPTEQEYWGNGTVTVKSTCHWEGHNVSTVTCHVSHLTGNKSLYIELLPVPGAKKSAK
The description is as above.

B1: P001009 (IgG) (antibody, V domains shown)
VH: EVQLLESGGGLVQPGGSLRLSCAASGFTFSSYDMSWVRQAPGKGLEWVSWISHGGGSIYYADSVKGRFTISRDNSKNTLYLQMNSLRAEDTAVYYCARDAPAYSAPLFDYWGQGTLVTVSS
VL: QSVLTQPPSASGTPGQRVTISCSGSSSNIGNNAVNWYQQLPGTAPKLLIYYDSNRPSGVPDRFSGSKSGTSASLAISGLRSEDEADYYCAAWDDSLSGYVFGGGTKLTVL
notes: also called P001009 WT; P001009 wt
Usually EC50 stands for the concentration needed to bring the measured effect to its halfway point. By EC50 (read off the curve) is commonly meant the concentration giving half of the maximal effect. The Kd is the free concentration of one partner at which half of the binding sites on the other are occupied at equilibrium, for simple one-to-one binding. Broadly, the koff is the first-order rate constant of dissociation. What is called kon is the rate constant with which the complex forms. Consider B1, for which the “EC50 (nM), degree of signal transduction by the Dok2 protein” value in test [1] amounted to 1.57 nM. Further, the figures for the EC50 in test [2] and in test [3] were 0.41 nM and 0.22 nM, respectively. Also, the “EC50 (read off the curve)” value in test [4] was roughly 2 nM; in test [5], roughly 5 nM. Besides, the dissociation constant Kd in test [6] was 0.0475 nM; in test [7], 2.08 nM. For the same molecule, the koff amounted to 0.000134 s⁻¹ in test [6] and 0.0117 s⁻¹ in test [7]. The kon in test [6] turned out to be 2.81e+06 M⁻¹ s⁻¹; in test [7], 5.63e+06 M⁻¹ s⁻¹.
